The target in assay [1] is T1, SARS-CoV two-proline stabilized S trimer (S-2P) (SARS-CoV (GenBank NC_004718.3), UniProt P59594, stabilised).
T1 construct: also called SARS-CoV S-2P
Put plainly: SPR. The conditions noted are these: both partners purified.

The target of assay [2] is T1, SARS-CoV two-proline stabilized S …. Nature of the assay: SPR. The following applies: both partners purified. This is another data set of the same source.

B1: 7D6 monoclonal antibody (antibody, V domains shown)
VH: EVQLQQSGAELVRPGASVKLSCTASGFNIKDTYIHWVKQRPEQGLEWIGRIDPGDGDTEYDPSFQGKATITADTSSNTAYLELSSLTSEDTAVYYCTRFYDYVDYGMDYWGQGTSVTVSS
VL: DIQMTQSPASLSASVGETVTITCRASGNIHNYLAWYQQKQGKSPQLLVYNAKTLADGVPSRFSGSGSGTQYSLKINSLQPEDFGSYYCQHFWSTPPWTFGGGTKLEVK
notes: also called mAb 7D6; source: mouse hybridoma, ascites, purified (protein A agarose); copies: 2 + 2
The molecule B1 registered an equilibrium dissociation constant (Kd) in assay [1] of 5.88 nM. In assay [2], this molecule yielded a dissociation constant (Kd) of 5.04 nM, an off-rate (koff) of 0.000241 s⁻¹ and a kon of 47800 M⁻¹ s⁻¹.

B2: 6D6 monoclonal antibody (antibody, V domains shown)
VH: EVQLQQSGAELVKPGASVKLSCTTSGFNIIDTYMHWVKQRPEEGLEWIGGIDPVNGNSEYDPKFQDKATITADTSSNTAYLHLSRLTSEDTAVYYCASAHYYGSSSSFPYWGQGTLVTVSA
VL: DIVMTQSQKFMSTSVGDRVSVTCKASQNVGTHVAWYQQKPGQSPKALIYSASYRYSGVPDRFTGSGVGTDFTLTITNVQSEDLAEYFCQQYNSYFTFGSGTKLEIK
notes: also called mAb 6D6; source: mouse hybridoma, ascites, purified (protein A agarose); copies: 2 + 2
Turning to B2, in assay [2], the Kd came to 2.14 nM, the koff was determined as 5.56e-05 s⁻¹ and the on-rate (kon) was 30600 M⁻¹ s⁻¹.

As usually defined, the Kd is the constant that tells how readily two partners part at equilibrium. A low value points to a tighter complex. The term koff denotes the first-order rate constant of dissociation. The low end stands for a long-lived complex, the high end for a short-lived complex. Broadly, the kon is the rate constant with which the complex forms. A low value points to slow association.

Source of the values: publication PMC8476643 (Nature Communications, 2021).
